Test results from publication PMC9127447.

Biological target: His-tagged dynamin 2b (dynamin 2-WT, baculovirus) (rat)
Assay: not stated; polymerization of recombinant (baculovirus) dynamin 2 with or without Bis-T-23; method in Supplementary Figures S2E, F

B1: His-tagged dynamin 2b (dynamin 2-WT, baculovirus) (enzyme)
chain: MGNRGMEELIPLVNKLQDAFSSIGQSCHLDLPQIAVVGGQSAGKSSVLENFVGRDFLPRGSGIVTRRPLILQLIFSKTEYAEFLHCKSKKFTDFDEVRQEIEAETDRVTGTNKGISPVPINLRVYSPHVLNLTLIDLPGITKVPVGDQPPDIEYQIKDMILQFISRESSLILAVTPANMDLANSDALKLAKEVDPQGLRTIGVITKLDLMDEGTDARDVLENKLLPLRRGYIGVVNRSQKDIEGRKDIRAALAAERKFFLSHPAYRHMADRMGTPHLQKTLNQQLTNHIRESLPTLRSKLQSQLLSLEKEVEEYKNFRPDDPTRKTKALLQMVQQFGVDFEKRIEGSGDQVDTLELSGGARINRIFHERFPFELVKMEFDEKDLRREISYAIKNIHGVRTGLFTPDMAFEAIVKKQLVKLKEPSLKCVDLVVSELATVIKKCAEKLSSYPRLREETERIVTTYIREREGRTKDQILLLIDIEQSYINTNHEDFIGFANAQQRSTQLNKKRAIPNQGEILVIRRGWLTINNISLMKGGSKEYWFVLTAESLSWYKDEEEKEKKYMLPLDNLKIRDVEKGFMSNKHVFAIFNTEQRNVYKDLRQIELACDSQEDVDSWKASFLRAGVYPEKDQAENEDGAQENTFSMDPQLERQVETIRNLVDSYVAIINKSIRDLMPKTIMHLMINNTKAFIHHELLAYLYSSADQSSLMEESAEQAQRRDDMLRMYHALKEALNIIGDISTSTVSTPVPPPVDDTWLQNTSSHSPTPQRRPVSSVHPPGRPPAVRGPTPGPPLIPMPVGATSSFSAPPIPSRPGPQNVFANNDPFSAPPQIPSRPARIPPGIPPGVPSRRAPAAPSRPTIIRPAEPSLLD
modifications: not checked
- fold increase of polymerization with Bis-T-23 against without Bis-T-23: 30 times
